# Assay results from patent publication US20100260668A1 (published 2010).
# B1: DVD488 (bispecific antibody, human IgG1, kappa)
# heavy: not shown
# light: DIQMTQSPSSLSASVGDRVTITCSASQDISNYLNWYQQKPGKAPKVLIYFTSSLHSGVPSRFSGSGSGTDFTLTISSLQPEDFATYYCQQYSTVPWTFGQGTKVEIKRTVAAPDIQMTQSSSYLSVSLGGRVTITCKASDHINNWLAWYQQKPGNAPRLLISGATSLETGVPSRFSGSGSGKDYTLSITSLQTEDVATYYCQQYWSIPLTFGAGTKLELKRTVAAPSVFIFPPSDEQLKSGTASVVCLLNNFYPREAKVQWKVDNALQSGNSQESVTEQDSKDSTYSLSSTLTLSKADYEKHKVYACEVTHQGLSSPVTKSFNRGEC
# notes: DVD-Ig; N-term; AB014 (VEGF), C-term; AB072 (DLL4); HC linker short, LC linker short; also called DVD488H; DBD488L
# B2: DVD500 (bispecific antibody, human IgG1, kappa)
# heavy: not shown
# light: B1 light
# notes: DVD-Ig; N-term; AB014 (VEGF), C-term; AB072 (DLL4); HC linker long, LC linker short; also called DVD500H; DVD500L
# B3: DVD460 (bispecific antibody, human IgG1, kappa)
# heavy: not shown
# light: DIQMTQSPSSLSASVGDRVTITCSASQDISNYLNWYQQKPGKAPKVLIYFTSSLHSGVPSRFSGSGSGTDFTLTISSLQPEDFATYYCQQYSTVPWTFGQGTKVEIKRTVAAPSVFIFPPDIVMTQSPDSLAVSLGERATISCRASESVDNYGISFMKWFQQKPGQPPKLLIYAASNQGSGVPDRFSGSGSGTDFTLTISSLQAEDVAVYYCQQSKEVPWTFGGGTKVEIKRTVAAPSVFIFPPSDEQLKSGTASVVCLLNNFYPREAKVQWKVDNALQSGNSQESVTEQDSKDSTYSLSSTLTLSKADYEKHKVYACEVTHQGLSSPVTKSFNRGEC
# notes: DVD-Ig; N-term; AB014 (VEGF), C-term; AB069 (DLL4); HC linker short, LC linker long; also called DVD460H; DVD460L
# B4: DVD518 (bispecific antibody, human IgG1, kappa, lambda)
# heavy: not shown
# light: DIQMTQSPSSLSASVGDRVTITCSASQDISNYLNWYQQKPGKAPKVLIYFTSSLHSGVPSRFSGSGSGTDFTLTISSLQPEDFATYYCQQYSTVPWTFGQGTKVEIKRTVAAPSVFIFPPQAVVTQESALTTSPGETVTLTCRSSTGAVTTSNYANWVQEKPDHLFTGLIGGTNNRAPGVPARFSGSLIGDKAALTITGAQTEDEAIYFCALWYSNHWVFGGGTKLTVLGQPKAAPSVTLFPPSSEELQANKATLVCLISDFYPGAVTVAWKADSSPVKAGVETTTPSKQSNNKYAASSYLSLTPEQWKSHRSYSCQVTHEGSTVEKTVAPTECS
# notes: DVD-Ig; N-term; AB014 (VEGF), C-term; AB073 (DLL4); HC linker long, LC linker long; also called DVD518H; DVD518L
# B5: DVD530 (bispecific antibody, human IgG1, kappa, lambda, L234A L235A)
# heavy: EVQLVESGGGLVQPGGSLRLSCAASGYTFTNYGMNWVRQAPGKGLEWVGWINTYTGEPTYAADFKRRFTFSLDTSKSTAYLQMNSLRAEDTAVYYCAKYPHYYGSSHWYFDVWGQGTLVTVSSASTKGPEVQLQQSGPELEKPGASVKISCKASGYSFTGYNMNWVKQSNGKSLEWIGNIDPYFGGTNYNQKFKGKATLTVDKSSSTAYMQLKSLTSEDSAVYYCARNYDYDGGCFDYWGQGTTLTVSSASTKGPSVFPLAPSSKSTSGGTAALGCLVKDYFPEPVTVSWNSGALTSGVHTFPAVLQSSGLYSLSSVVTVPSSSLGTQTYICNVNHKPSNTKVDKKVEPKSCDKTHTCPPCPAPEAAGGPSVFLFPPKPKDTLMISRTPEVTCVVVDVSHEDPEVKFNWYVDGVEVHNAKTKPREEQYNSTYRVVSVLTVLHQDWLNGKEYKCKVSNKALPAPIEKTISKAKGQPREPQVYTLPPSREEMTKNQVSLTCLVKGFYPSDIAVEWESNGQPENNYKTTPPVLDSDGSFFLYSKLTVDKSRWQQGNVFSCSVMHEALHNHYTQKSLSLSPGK
# light: B4 light
# notes: DVD-Ig; N-term; AB014 (VEGF), C-term; AB073 (DLL4); HC linker short, LC linker long; also called DVD530H; DVD530L
# B6: DVD512 (bispecific antibody, human IgG1, lambda, L234A L235A)
# heavy: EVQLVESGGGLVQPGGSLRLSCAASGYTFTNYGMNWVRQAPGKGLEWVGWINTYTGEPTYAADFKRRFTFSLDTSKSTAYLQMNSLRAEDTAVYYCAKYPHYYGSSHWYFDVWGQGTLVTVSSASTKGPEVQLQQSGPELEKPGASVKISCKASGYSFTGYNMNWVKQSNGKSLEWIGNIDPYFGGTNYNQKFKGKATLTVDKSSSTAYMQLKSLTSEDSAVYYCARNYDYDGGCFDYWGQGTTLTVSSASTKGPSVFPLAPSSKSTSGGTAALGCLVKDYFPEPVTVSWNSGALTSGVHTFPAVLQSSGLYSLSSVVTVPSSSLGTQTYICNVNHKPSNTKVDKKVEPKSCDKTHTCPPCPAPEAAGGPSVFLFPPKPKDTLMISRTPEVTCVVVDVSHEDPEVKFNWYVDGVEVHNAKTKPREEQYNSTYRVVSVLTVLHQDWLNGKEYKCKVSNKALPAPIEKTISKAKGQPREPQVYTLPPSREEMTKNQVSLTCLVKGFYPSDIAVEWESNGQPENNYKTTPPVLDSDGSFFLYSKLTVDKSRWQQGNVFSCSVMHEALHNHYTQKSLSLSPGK
# light: DIQMTQSPSSLSASVGDRVTITCSASQDISNYLNWYQQKPGKAPKVLIYFTSSLHSGVPSRFSGSGSGTDFTLTISSLQPEDFATYYCQQYSTVPWTFGQGTKVEIKRTVAAPQAVVTQESALTTSPGETVTLTCRSSTGAVTTSNYANWVQEKPDHLFTGLIGGTNNRAPGVPARFSGSLIGDKAALTITGAQTEDEAIYFCALWYSNHWVFGGGTKLTVLGQPKAAPSVTLFPPSSEELQANKATLVCLISDFYPGAVTVAWKADSSPVKAGVETTTPSKQSNNKYAASSYLSLTPEQWKSHRSYSCQVTHEGSTVEKTVAPTECS
# notes: DVD-Ig; N-term; AB014 (VEGF), C-term; AB073 (DLL4); HC linker short, LC linker short; also called DVD512H; DVD512L
# B7: DVD524 (bispecific antibody, human IgG1, lambda)
# heavy: not shown
# light: B6 light
# notes: DVD-Ig; N-term; AB014 (VEGF), C-term; AB073 (DLL4); HC linker long, LC linker short; also called DVD524H; DVD524L
# B8: DVD467 (bispecific antibody, human IgG1, kappa)
# heavy: not shown
# light: DIQMTQSPSSLSASVGDRVTITCRASQDVSTAVAWYQQKPGKAPKLLIYSASFLYSGVPSRFSGSGSGTDFTLTISSLQPEDFATTYYCQQSYTGTVTFGQGTKVEIKRTVAAPDIQMTQSPSSLSASVGDRVTITCRASQVIRRSLAWYQQKPGKAPKLLIYAASNLASGVPSRFSGSGSGTDFTLTISSLQPEDFATYYCQQSNTSPLTFGQGTKVEIKRTVAAPSVFIFPPSDEQLKSGTASVVCLLNNFYPREAKVQWKVDNALQSGNSQESVTEQDSKDSTYSLSSTLTLSKADYEKHKVYACEVTHQGLSSPVTKSFNRGEC
# notes: DVD-Ig; N-term; AB015 (DLL4), C-term; AB071 (VEGF); HC linker short, LC linker short; also called DVD467H; DVD467L
# B9: DVD494 (bispecific antibody, human IgG1, kappa)
# heavy: not shown
# light: DIQMTQSPSSLSASVGDRVTITCSASQDISNYLNWYQQKPGKAPKVLIYFTSSLHSGVPSRFSGSGSGTDFTLTISSLQPEDFATYYCQQYSTVPWTFGQGTKVEIKRTVAAPSVFIFPPDIQMTQSSSYLSVSLGGRVTITCKASDHINNWLAWYQQKPGNAPRLLISGATSLETGVPSRFSGSGSGKDYTLSITSLQTEDVATYYCQQYWSIPLTFGAGTKLELKRTVAAPSVFIFPPSDEQLKSGTASVVCLLNNFYPREAKVQWKVDNALQSGNSQESVTEQDSKDSTYSLSSTLTLSKADYEKHKVYACEVTHQGLSSPVTKSFNRGEC
# notes: DVD-Ig; N-term; AB014 (VEGF), C-term; AB072 (DLL4); HC linker long, LC linker long; also called DVD494H; DVD494L
# B10: DVD506 (bispecific antibody, human IgG1, kappa)
# heavy: not shown
# light: B9 light
# notes: DVD-Ig; N-term; AB014 (VEGF), C-term; AB072 (DLL4); HC linker short, LC linker long; also called DVD506H; DVD506L
# B11: DVD473 (bispecific antibody, human IgG1, kappa)
# heavy: not shown
# light: DIQMTQSPSSLSASVGDRVTITCRASQDVSTAVAWYQQKPGKAPKLLIYSASFLYSGVPSRFSGSGSGTDFTLTISSLQPEDFATTYYCQQSYTGTVTFGQGTKVEIKRTVAAPSVFIFPPDIQMTQSPSSLSASVGDRVTITCRASQVIRRSLAWYQQKPGKAPKLLIYAASNLASGVPSRFSGSGSGTDFTLTISSLQPEDFATYYCQQSNTSPLTFGQGTKVEIKRTVAAPSVFIFPPSDEQLKSGTASVVCLLNNFYPREAKVQWKVDNALQSGNSQESVTEQDSKDSTYSLSSTLTLSKADYEKHKVYACEVTHQGLSSPVTKSFNRGEC
# notes: DVD-Ig; N-term; AB015 (DLL4), C-term; AB071 (VEGF); HC linker long, LC linker long; also called DVD473H; DVD473L
# Biological target: T1, VEGF (UniProt P15692-4 27-191)
# T1 construct: Bought reagent; also called vascular endothelial growth factor
# T1 sequence (P15692 other isoform, or with tags, fused parts or gaps limits assumed): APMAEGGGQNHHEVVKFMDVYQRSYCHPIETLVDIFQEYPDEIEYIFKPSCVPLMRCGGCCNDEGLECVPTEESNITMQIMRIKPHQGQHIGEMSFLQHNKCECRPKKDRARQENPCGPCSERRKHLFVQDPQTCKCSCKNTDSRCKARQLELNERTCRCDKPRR
# Assay: BIACORE SPR
Kd,koff,kon,Binder
0.536 nM,0.000374 s⁻¹,699000 M⁻¹ s⁻¹,B1
0.504 nM,0.000248 s⁻¹,492000 M⁻¹ s⁻¹,B2
0.174 nM,0.000228 s⁻¹,1.32e+06 M⁻¹ s⁻¹,B3
0.434 nM,0.125 s⁻¹,2.88e+08 M⁻¹ s⁻¹,B4
0.136 nM,0.000171 s⁻¹,1.26e+06 M⁻¹ s⁻¹,B5
0.153 nM,0.000143 s⁻¹,939000 M⁻¹ s⁻¹,B6
0.113 nM,0.000188 s⁻¹,1.67e+06 M⁻¹ s⁻¹,B7
1.33 nM,0.000236 s⁻¹,177000 M⁻¹ s⁻¹,B8
0.566 nM,0.0176 s⁻¹,3.11e+07 M⁻¹ s⁻¹,B9
0.281 nM,0.000171 s⁻¹,606000 M⁻¹ s⁻¹,B10
1.27 nM,0.000265 s⁻¹,209000 M⁻¹ s⁻¹,B11
